The source of these data is publication PMC11061236, “Structure-function analysis of plant G-protein regulatory mechanisms identifies key Gα-RGS protein interactions” (The Journal of Biological Chemistry, 2024).

One experiment has as its target T1, OsRGA1 (Oryza sativa, UniProt A2Y3B5).
T1 construct: gene GPA1; full-length cDNA in pET-28a, N-terminal His6, E. coli BL21(DE3); tag cut with thrombin for crystals; four monomers in asymmetric unit, modelled within residues 39-375
Description: X-ray crystal structure, […] Å. In kind it is binding. Particulars: Mg2+; co-crystallised with 5 mM GDP, 4 °C; nucleotide site between Ras-like and helical domains.

Experiment [1] concerns the target RGS domain of Selaginella moellendorffii RGS (SmRGS), wild-type (Selaginella moellendorffii). The experiment in a line: ITC; SmGPA (syringe) injected into SmRGS (cell), 10:1; 20 °C; 50 mM Tris·HCl pH 8.0, 100 mM NaCl, 5 mM MgCl2, 100 mM GDP, 30 mM AlCl3, 20 mM NaF, 2 mM TCEP, 5% glycerol (GDP·Mg2+·AlF4- form that mimics the GTP-bound form); one-site model.
The target of experiment [2] is SmRGS E313A (Selaginella moellendorffii). The experiment is described as above.
The target in experiment [3] is SmRGS E355A (Selaginella moellendorffii). Described as above.
The target in experiment [4] is SmRGS N357A (Selaginella moellendorffii). Described as above.

T1 sequence (A2Y3B5 whole entry, the tested form may be a part): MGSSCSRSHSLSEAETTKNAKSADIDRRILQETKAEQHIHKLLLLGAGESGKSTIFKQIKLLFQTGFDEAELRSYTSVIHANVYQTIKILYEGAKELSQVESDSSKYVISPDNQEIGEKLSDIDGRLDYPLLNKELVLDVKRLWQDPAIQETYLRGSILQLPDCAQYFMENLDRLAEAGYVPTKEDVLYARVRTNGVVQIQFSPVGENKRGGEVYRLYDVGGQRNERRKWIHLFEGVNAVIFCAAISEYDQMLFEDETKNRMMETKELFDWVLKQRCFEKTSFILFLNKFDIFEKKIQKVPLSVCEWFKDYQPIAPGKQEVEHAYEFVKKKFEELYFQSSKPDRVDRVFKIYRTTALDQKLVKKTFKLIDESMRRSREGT

Take `Nc1nc2c(ncn2[C@@H]2O[C@H](COP(=O)(O)OP(=O)(O)O)[C@@H](O)[C@H]2O)c(=O)[nH]1` [GDP]: the “X-ray crystal structure, 2.99 Å” value on OsRGA1 is “interactions with the guanine ring and ribose of GDP are comparable to GTPγS bound in SmGPA”.

One may read the Kd as the constant that tells how readily two partners part at equilibrium. For SmGPA F245A (natural protein), in experiment [1], the Kd was 16900 nM and the dH was 3.1 kcal/mol.

For SmGPA D125A (natural protein), in experiment [1], the Kd came out at 86 nM and the dH was -6.53 kcal/mol.

In experiment [1], SmGPA V189A (natural protein) displayed a Kd of 130 nM and a dH of -2.89 kcal/mol.

In experiment [1], SmGPA Y126A (natural protein) had a Kd of 59 nM and a dH of -7.45 kcal/mol.

For “Selaginella moellendorffii Gα (SmGPA), wild-type (natural protein)”, the Kd in experiment [2] is 1050 nM; in experiment [3] it was 16 nM; in experiment [4], 6770 nM; in experiment [1], 23 nM. The dH was -3.74 kcal/mol in experiment [2], -7.04 kcal/mol in experiment [3], -4.36 kcal/mol in experiment [4] and -3.07 kcal/mol in experiment [1].

Consider SmGPA Q214A (natural protein), for which, in experiment [1], the dissociation constant Kd was determined as 270 nM and the dH is -5.3 kcal/mol.

In experiment [1], SmGPA N216A (natural protein) registered an equilibrium dissociation constant (Kd) of 55 nM and a dH of -4.81 kcal/mol.

In experiment [1], SmGPA E246A (natural protein) registered a Kd of 18400 nM and a dH of -2.73 kcal/mol.

Take SmGPA R219A (natural protein): in experiment [1], the equilibrium dissociation constant (Kd) was found to be 1960 nM and the dH was -6.29 kcal/mol.
